Source: patent US20240383994A1 (CHIA TAI TIANQING PHARMACEUTICAL GROUP, published 2024)
Positions count from the first letter of the chain named.

T1: CynoCD40-His protein (Acro, Cat. No.: CD0-C52H6) (cynomolgus monkey, UniProt P25942 21-193 (human entry))
T1 construct: Bought protein; also called cynomolgus monkey CD40 antigen; not shown: His tag
T1 chain: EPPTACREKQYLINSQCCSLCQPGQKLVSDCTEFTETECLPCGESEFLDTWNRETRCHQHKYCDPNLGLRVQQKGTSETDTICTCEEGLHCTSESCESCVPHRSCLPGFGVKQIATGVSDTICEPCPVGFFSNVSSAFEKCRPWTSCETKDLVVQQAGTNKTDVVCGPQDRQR

B1: Chi-A01 (antibody, human IgG4 S228P, kappa, V domains shown)
VH: QVQLKESGPGLVAPSQSLSITCTVSGFSLPTSGVHWVRQPPGKGLEWLGVIWAGGDTNYNSALMSRLSISKDNSKSQVFLKMNSLQKDDTAIYYCLGHGHFDVWGAGTTVTVSS
VL: DVVMTQTPLSLPVSLGDQASISCRSSQSLVHSSGNTYLQWYLQKPGQSPGLLIYKVSNRFSGVPDRFSGSGSGTDFTLKISRVEAEDLGVYFCSQTTHVPWTFGGGTKLEIKR
notes: also called chimeric A01
B2: Chi-A02 (antibody, human IgG4 S228P, kappa, V domains shown)
VH: B1 VH with P30T, T31S, N58S, K87T, I92M, F101L
VL: B1 VL with Q39H
notes: also called chimeric A02
B3: Chi-A03 (antibody, human IgG4 S228P, kappa, V domains shown)
VH: DVQLQESGPDRVKPSQSLSLTCTVTGYSITSDYSWHWIRQFPGNKLEWMGYIYSSGHTYYNPSLKSRISFTRDTSKNQFFLQLNSVTTEDTATYYCAIYYYGRSYFDNWGRGTTLTVSS
VL: QIVLTQSPAIMSASPGEKVTLTCSASSSVNYMHWYQQKSGTSPKRWIYDTSKLASGVPARFSGSGSGTSYSLTISSMEAEDAATYYCQQWSSNPLTFGAGTKLELKR
notes: also called chimeric A03
B4: Iscalimab (CFZ533) (antibody, human IgG1, kappa, N297A, V domains shown)
VH: QVQLVESGGGVVQPGRSLRLSCAASGFTFSSYGMHWVRQAPGKGLEWVAVISYEESNRYHADSVKGRFTISRDNSKITLYLQMNSLRTEDTAVYYCARDGGIAAPGPDYWGQGTLVTVSS
VL: DIVMTQSPLSLTVTPGEPASISCRSSQSLLYSNGYNYLDWYLQKPGQSPQVLISLGSNRASGVPDRFSGSGSGTDFTLKISRVEAEDVGVYYCMQARQTPFTFGPGTKVDIRR
notes: also called BM; benchmark
B5: hzA01-3.3 (antibody, human IgG4 S228P, kappa, V domains shown)
VH: QVQLKESGPGLVKPSETLSLTCTVSGFSLPTSGVHWIRQPPGKGLEWIGVIWAGGDTNYNSALKSRVTISKDNSKSQVFLKLSSVTAADTAVYYCLGHGHFDVWGQGTLVTVSS
VL: B1 VL with T7S, S14T, D17Q, Q18P, K44R, L88V, F92Y, G105Q
notes: Humanized A01; also called hzA01L3 + hzA01H3

Target: T2, human CD40 (hCD40), full length, on cells (human, UniProt P25942 21-277)
T2 construct: also called CHO-K1-hCD40 cells
Experiment: flow cytometry (MFI) on CHO-K1-hCD40 cells, PE anti-human IgG detection

B1 and B2 are within 1.5-fold of each other in EC50: 0.43 nM for the first, 0.39 nM for the second.

Going from B3 to B4, the EC50 falls from 1.36 nM to 0.36 nM (3.8-fold). The second is the more potent here.

Target: T1, CynoCD40-His protein (Acro, Cat. No.: …)
Experiment: BLI (Fortebio Octet RED96e), antibody captured on AHC sensor, antigen 1.56-100 nM, 1:1 model
Method: (§1) The affinity of humanized anti-CD40 antibodies to an hCD40-His protein (Acro, Cat. No.: CD0-H5228) and a CynoCD40-His protein (Acro, Cat. No.: CD0-C52H6) was detected by a ForteBio molecular interaction system. Firstly, an AHC biosensor (Fortebio, Cat. No.: 18-5060) was activated, and then immersed in an anti-CD40 antibody solution at a final concentration of 5 μg/mL to capture the antibodies. Serially 2-fold diluted hCD40-His protein and CynoCD40-His protein in a final concentration range of 1.56 nM-100 nM were then […] the AHC biosensor. The response signals were detected in real time on a Fortebio molecular interaction system (Fortebio Octet RED96e) to give association and dissociation curves. After the completion of dissociation in each cycle, the AHC biosensor was regenerated for the next capture; the procedure was repeated until the affinity of the different antibodies for CD40 was determined. The resulting data were analyzed by Fortebio Data Analysis 11.0 software using a 1:1 (Langmuir) binding model to determine the Kₐ (Kₒₙ) and Kd (Kdis) values, and the dissociation constant KD was calculated by KD=Kd/Kₐ. See www.fortebio.com for more detailed detection procedures and related information.

Compared with B5, B1 is 1.5-fold lower in Kd: 0.243 nM for the first, 0.162 nM for the second. The second binds more tightly here.

Binder B4 has a Kd of 0.0559 nM.

Going from B5 to B1, the koff falls from 0.000484 s⁻¹ to 0.000276 s⁻¹ (1.8-fold).

Work on B4 yielded a koff of 4.3e-05 s⁻¹.

B5 and B1 are within 1.5-fold of each other in kon: 1.99e+06 M⁻¹ s⁻¹ for the first, 1.7e+06 M⁻¹ s⁻¹ for the second.

B4 showed a kon of 769000 M⁻¹ s⁻¹.

Target: T3, hCD40-His protein (Acro, Cat. No.: CD0-H5228) (human, UniProt P25942 21-193)
T3 construct: Bought protein; also called human CD40 antigen; not shown: His tag
Experiment: as above
Method: as §1

Going from B5 to B1, the Kd falls from 0.255 nM to 0.153 nM (1.7-fold). The second binds more tightly here.

Going from B3 to B4, the Kd falls from 2.51 nM to 0.118 nM (21-fold). The second binds more tightly here.

B5 and B1 are within 1.5-fold of each other in koff: 0.000414 s⁻¹ for the first, 0.000283 s⁻¹ for the second.

Compared with B3, B4 is 26-fold lower in koff: 0.00147 s⁻¹ for the first, 5.61e-05 s⁻¹ for the second.

B5 and B1 are within 1.5-fold of each other in kon: 1.63e+06 M⁻¹ s⁻¹ for the first, 1.85e+06 M⁻¹ s⁻¹ for the second.

B3 and B4 are within 1.5-fold of each other in kon: 586000 M⁻¹ s⁻¹ for the first, 474000 M⁻¹ s⁻¹ for the second.

Target: T2, human CD40 (hCD40), full length, on …
Experiment: flow cytometry (MFI) on 293T-hCD40-NFκB cells, PE anti-human IgG detection

Going from B5 to B1, the “EC50 (read off the curve)” value falls from roughly 3 ng/mL to roughly 2 ng/mL (1.5-fold).

In the case of B4, the “EC50 (read off the curve)” value is reported as roughly 10 ng/mL.

Target: T2, human CD40 (hCD40), full length, on …
Experiment: cell-based or functional assay

B1 and B2 are within 1.5-fold of each other in “IC50, inhibition of Ramos cell apoptosis induced by CD40L and IL-4” value (“IC50, inhibition” for short): 0.00508 nM for the first, 0.00499 nM for the second.

Compared with B3, B4 is 7.3-fold lower in “IC50, inhibition” value: 0.134 nM for the first, 0.0183 nM for the second.

Going from B1 to B2, the “Inhibition, % of Ramos cell apoptosis at 0.064 ng/L (so in the source)” value rises from 0% to 5%.

Going from B3 to B4, the “Inhibition, % of Ramos cell apoptosis at 0.064 ng/L (so in the source)” value rises from -8% to 4%.

Compared with B1, B2 is higher in “Inhibition, % of Ramos cell apoptosis at 0.32 ng/L (so in the source)” value: 17% for the first, 20% for the second.

Compared with B3, B4 is higher in “Inhibition, % of Ramos cell apoptosis at 0.32 ng/L (so in the source)” value: -9% for the first, 12% for the second.

Going from B1 to B2, the “Inhibition, % of Ramos cell apoptosis at 1.6 ng/L (so in the source)” value rises from 82% to 85%.

Compared with B3, B4 is higher in “Inhibition, % of Ramos cell apoptosis at 1.6 ng/L (so in the source)” value: -10% for the first, 41% for the second.

Compared with B1, B2 is higher in “Inhibition, % of Ramos cell apoptosis at 8 ng/L (so in the source)” value: 96% for the first, 98% for the second.

Compared with B3, B4 is higher in “Inhibition, % of Ramos cell apoptosis at 8 ng/L (so in the source)” value: 18% for the first, 85% for the second.

Compared with B1, B2 is higher in “Inhibition, % of Ramos cell apoptosis at 40 ng/L (so in the source)” value: 95% for the first, 97% for the second.

First: B3
Second: B4
The “Inhibition, % of Ramos cell apoptosis at 40 ng/L (so in the source)” value of the first is lower: 66% for the first, 97% for the second.

Going from B1 to B2, the “Inhibition, % of Ramos cell apoptosis at 200 ng/L (so in the source)” value rises from 96% to 97%.

First: B3
Second: B4
The “Inhibition, % of Ramos cell apoptosis at 200 ng/L (so in the source)” value of the first is lower: 90% for the first, 99% for the second.

First: B1
Second: B2
The “Inhibition, % of Ramos cell apoptosis at 1000 ng/L (so in the source)” value of the first is higher: 95% for the first, 94% for the second.

B3 and B4 are the same in “Inhibition, % of Ramos cell apoptosis at 1000 ng/L (so in the source)” value: 98% for the first, 98% for the second.

Target: T2, human CD40 (hCD40), full length, on …
Experiment: cell-based or functional assay
Remark: another data set of the same source

Going from B1 to B4, the “IC50, inhibition” value rises from 0.00413 nM to 0.0247 nM (6-fold).

First: B1
Second: B4
The “Inhibition, % of Ramos cell apoptosis at 0.0128 ng/mL” value of the first is higher: 11% for the first, -26% for the second.

Going from B1 to B4, the “Inhibition, % of Ramos cell apoptosis at 0.064 ng/mL” value falls from 10% to -24%.

First: B1
Second: B4
The “Inhibition, % of Ramos cell apoptosis at 0.32 ng/mL” value of the first is higher: 39% for the first, -10% for the second.

Compared with B1, B4 is lower in “Inhibition, % of Ramos cell apoptosis at 1.6 ng/mL” value: 79% for the first, 5% for the second.

Compared with B1, B4 is lower in “Inhibition, % of Ramos cell apoptosis at 8 ng/mL” value: 101% for the first, 72% for the second.

Going from B1 to B4, the “Inhibition, % of Ramos cell apoptosis at 40 ng/mL” value falls from 99% to 98%.

Compared with B1, B4 is lower in “Inhibition, % of Ramos cell apoptosis at 200 ng/mL” value: 101% for the first, 100% for the second.

First: B1
Second: B4
The “Inhibition, % of Ramos cell apoptosis at 1000 ng/mL” value of the first is lower: 100% for the first, 101% for the second.

Target: T2, human CD40 (hCD40), full length, on …
Experiment: cell-based or functional assay
Remark: another data set of the same source

Going from B5 to B4, the “MFI value (CD95 on Ramos cells), Fc crosslinking with anti-human IgG Fcγ antibody, 1 µg/mL antibody” value falls from 14100 MFI to 12500 MFI.

Compared with B5, B4 is lower in “MFI value (CD95 on Ramos cells), Fc crosslinking with anti-human IgG Fcγ antibody, 10 µg/mL antibody” value: 12300 MFI for the first, 12100 MFI for the second.

Target: T4, hCD40-mFc (human)
T4 construct: Prepared in-house in CHO cells; also called human CD40 recombinant protein containing a mouse antibody heavy chain Fc; Human CD40-mFc
Experiment: flow cytometry, blocking of hCD40-mFc (2 µg/mL) binding to CHO-K1-hCD40L cells
Method: A CHO-K1-hCD40L cell suspension and a CHO-K1-CynoCD40L cell suspension at a cell concentration of 3×10⁵ cells/mL were separately added into a 96-well U-bottom plate at 100 μL/well. An hCD40-mFc protein at a final concentration of 2 μg/mL (prepared in-house, SEQ ID NO: 64) or a cynoCD40-mFc protein at a final concentration of 2 μg/mL (prepared in-house, SEQ ID NO: 65) was added correspondingly, before serially 2-fold diluted anti-CD40 antibodies in a final concentration range of 312.5 ng/ml-40000 ng/ml were added. The mixture was mixed well, and then incubated at 4° C. for 1 h. The cells were washed with PBS containing 2% of FBS, and then a PE-conjugated goat anti-mouse IgG (H+L) antibody (Abcam, Cat. No.: ab97041) diluted at a volume ratio of 1:500 was added, and the mixture was incubated at 4° C. for 0.5 h. The cells were washed with PBS containing 2% of […], and then resuspended in PBS containing 2% of FBS. The fluorescence signals were detected on a flow cytometer (Sartorius IQue3). The activity of anti-CD40 antibodies to block the binding of CHO-K1-hCD40L cells to an hCD40-mFc protein and CHO-K1-cynoCD40L cells to a cynoCD40-mFc protein was analyzed by the mean fluorescence intensity (MFI) of staining, and the IC₅₀ value was calculated by GraphPad Prism software.

Compared with B5, B1 is 1.8-fold lower in IC50: 38.4 nM for the first, 21.3 nM for the second.

Work on B4 yielded an IC50 of 20.6 nM.

Target: T2, human CD40 (hCD40), full length, on …
Experiment: cell-based or functional assay
Remark: another data set of the same source

First: B5
Second: B1
The “IC50 (read off the curve); NF-κB luciferase reporter (RLU), 293T-hCD40-NFκB cells co-cultured 1:1 with CHO-K1-hCD40L cells” value of the first is 3.3-fold higher: roughly 2 ng/mL for the first, roughly 0.6 ng/mL for the second.

With B4 the “IC50 (read off the curve); NF-κB luciferase reporter (RLU), 293T-hCD40-NFκB cells co-cultured 1:1 with CHO-K1-hCD40L cells” value was roughly 8 ng/mL.
